Patent US6808893 (Johns Hopkins, dated 2004)

What was measured:
[1] = target: T1, GLAST glutamate transporter (rat, UniProt P24942 1-543); assay: co-immunoprecipitation from rat brain extract, Western blotting
T1 construct: whole, on cells; Native protein in solubilized rat brain
T1 sequence (looked up): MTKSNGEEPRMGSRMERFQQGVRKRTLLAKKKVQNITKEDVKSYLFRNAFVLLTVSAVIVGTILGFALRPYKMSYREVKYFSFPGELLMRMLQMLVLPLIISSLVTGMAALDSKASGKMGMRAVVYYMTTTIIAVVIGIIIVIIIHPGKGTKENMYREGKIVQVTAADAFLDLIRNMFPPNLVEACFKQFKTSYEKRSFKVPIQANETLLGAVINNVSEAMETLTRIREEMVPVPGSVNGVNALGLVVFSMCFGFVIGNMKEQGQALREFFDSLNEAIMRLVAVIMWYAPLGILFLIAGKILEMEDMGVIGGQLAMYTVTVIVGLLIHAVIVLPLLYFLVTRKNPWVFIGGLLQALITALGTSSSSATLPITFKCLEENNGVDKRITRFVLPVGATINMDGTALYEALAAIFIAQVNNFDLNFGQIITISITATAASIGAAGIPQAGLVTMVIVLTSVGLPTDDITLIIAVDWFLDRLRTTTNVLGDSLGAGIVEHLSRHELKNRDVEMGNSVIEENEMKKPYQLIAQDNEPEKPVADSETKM

[2] = target: T2, GLT-1 glutamate transporter (rat, UniProt P31596 1-573); assay: as above
T2 construct: whole, on cells; Native protein in solubilized rat brain

[3] = target: T3, EAAT4, full-length glutamate transporter (rat, UniProt O35921 1-561); assay: as above
T3 construct: whole, on cells; tested from detergent lysates; also called rEAAT4; rat EAAT4
T3 sequence (looked up): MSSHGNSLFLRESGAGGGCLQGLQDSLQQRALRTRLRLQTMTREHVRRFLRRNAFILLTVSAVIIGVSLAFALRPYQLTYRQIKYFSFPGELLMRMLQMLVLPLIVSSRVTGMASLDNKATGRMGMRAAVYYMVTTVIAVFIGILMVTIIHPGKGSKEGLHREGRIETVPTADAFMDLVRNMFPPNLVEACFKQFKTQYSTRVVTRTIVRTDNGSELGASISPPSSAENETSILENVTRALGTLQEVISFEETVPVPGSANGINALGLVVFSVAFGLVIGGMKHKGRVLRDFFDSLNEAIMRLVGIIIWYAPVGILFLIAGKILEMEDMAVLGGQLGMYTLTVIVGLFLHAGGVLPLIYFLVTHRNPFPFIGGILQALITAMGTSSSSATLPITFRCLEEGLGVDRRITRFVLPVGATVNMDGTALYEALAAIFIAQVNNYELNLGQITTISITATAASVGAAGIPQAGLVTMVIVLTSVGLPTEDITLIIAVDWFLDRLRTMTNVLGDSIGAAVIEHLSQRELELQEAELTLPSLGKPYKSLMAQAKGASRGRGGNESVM

[4] = target: the molecule itself; assay: immunoblot of tissue homogenates and purified protein
[5] = target: T3, EAAT4, full-length glutamate transporter; assay: co-immunoprecipitation from transfected HEK293 cells
Description: (§1) Immunoprecipitation experiments were performed to test if EAAC1 and GTRAP3-18 interact in vivo. This was first examined in transfected HEK293 cells using amino-terminus c-myc tagged GTRAP3-18. EAAC1 is co-immunoprecipitated with c-myc-GTRAP3-18 in the cell extract prepared from co-expression cells but not from EAAC1 or c-myc-GTRAP3-18 single expression cells. […] This interaction was specific, since EAAT4, another neuronal glutamate transporter subtype, is not immunoprecipitated with c-myc-GTRAP3-18. Identical results are obtained using COS-7 and C6 glioma cell lines.

[6] = target: T4, truncated EAAC1 lacking the interacting carboxy-terminal domain (lacking the last 93 amino acids) (UniProt P51907 1-430); assay: as above
T4 construct: domain: EAAC1 lacking the last 93 amino acids
T4 sequence (looked up): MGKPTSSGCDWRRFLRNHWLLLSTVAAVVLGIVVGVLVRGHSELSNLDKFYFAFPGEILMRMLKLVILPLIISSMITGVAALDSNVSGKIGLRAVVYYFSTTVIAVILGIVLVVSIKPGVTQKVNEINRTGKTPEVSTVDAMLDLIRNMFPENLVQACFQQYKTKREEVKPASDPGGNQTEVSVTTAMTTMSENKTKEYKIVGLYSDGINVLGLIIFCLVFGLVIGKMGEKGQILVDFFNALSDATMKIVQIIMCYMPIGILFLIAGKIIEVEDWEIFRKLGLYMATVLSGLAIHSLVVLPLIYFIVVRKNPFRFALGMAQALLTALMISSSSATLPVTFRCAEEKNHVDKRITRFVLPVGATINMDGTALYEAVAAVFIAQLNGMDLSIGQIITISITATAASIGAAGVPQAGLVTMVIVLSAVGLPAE
Description: as §1

[7] = target: T5, GST (glutathione S-transferase) alone (UniProt P08515 1-218 = GST); assay: cell-free binding to protein immobilized on glutathione-Sepharose
T5 construct: Control, immobilized on glutathione-Sepharose
Description: The interaction of GTRAP3-18 with EAAC1 was examined using in vitro and in vivo methods. For in vitro cell-free binding, EAAC1 was expressed as a fusion protein with glutathione S-transferase (GST), and GTRAP3-18 was produced and labeled with [^35S]-methionine by in vitro transcription and translation. Purified GST or GST-EAAC 1 fusion proteins immobilized on glutathione-Sepharose were incubated with [^35S]-labeled GTRAP3-18 protein. GTRAP3-18 specifically binds to immobilized GST-EAAC1 but not to GST alone, indicating an in vitro interaction.

[8] = target: T6, myc-tagged full-length GTRAP4-41 (rat, UniProt Q9QWN8 2-2388); assay: co-immunoprecipitation from transfected HEK 293T cells
T6 construct: tested from solubilized cell extract; also called myc-tagged GTRAP4-41; not shown: myc tag of the myc-tagged pRK5 vector
T6 sequence (Q9QWN8 other isoform, or with tags, fused parts or gaps): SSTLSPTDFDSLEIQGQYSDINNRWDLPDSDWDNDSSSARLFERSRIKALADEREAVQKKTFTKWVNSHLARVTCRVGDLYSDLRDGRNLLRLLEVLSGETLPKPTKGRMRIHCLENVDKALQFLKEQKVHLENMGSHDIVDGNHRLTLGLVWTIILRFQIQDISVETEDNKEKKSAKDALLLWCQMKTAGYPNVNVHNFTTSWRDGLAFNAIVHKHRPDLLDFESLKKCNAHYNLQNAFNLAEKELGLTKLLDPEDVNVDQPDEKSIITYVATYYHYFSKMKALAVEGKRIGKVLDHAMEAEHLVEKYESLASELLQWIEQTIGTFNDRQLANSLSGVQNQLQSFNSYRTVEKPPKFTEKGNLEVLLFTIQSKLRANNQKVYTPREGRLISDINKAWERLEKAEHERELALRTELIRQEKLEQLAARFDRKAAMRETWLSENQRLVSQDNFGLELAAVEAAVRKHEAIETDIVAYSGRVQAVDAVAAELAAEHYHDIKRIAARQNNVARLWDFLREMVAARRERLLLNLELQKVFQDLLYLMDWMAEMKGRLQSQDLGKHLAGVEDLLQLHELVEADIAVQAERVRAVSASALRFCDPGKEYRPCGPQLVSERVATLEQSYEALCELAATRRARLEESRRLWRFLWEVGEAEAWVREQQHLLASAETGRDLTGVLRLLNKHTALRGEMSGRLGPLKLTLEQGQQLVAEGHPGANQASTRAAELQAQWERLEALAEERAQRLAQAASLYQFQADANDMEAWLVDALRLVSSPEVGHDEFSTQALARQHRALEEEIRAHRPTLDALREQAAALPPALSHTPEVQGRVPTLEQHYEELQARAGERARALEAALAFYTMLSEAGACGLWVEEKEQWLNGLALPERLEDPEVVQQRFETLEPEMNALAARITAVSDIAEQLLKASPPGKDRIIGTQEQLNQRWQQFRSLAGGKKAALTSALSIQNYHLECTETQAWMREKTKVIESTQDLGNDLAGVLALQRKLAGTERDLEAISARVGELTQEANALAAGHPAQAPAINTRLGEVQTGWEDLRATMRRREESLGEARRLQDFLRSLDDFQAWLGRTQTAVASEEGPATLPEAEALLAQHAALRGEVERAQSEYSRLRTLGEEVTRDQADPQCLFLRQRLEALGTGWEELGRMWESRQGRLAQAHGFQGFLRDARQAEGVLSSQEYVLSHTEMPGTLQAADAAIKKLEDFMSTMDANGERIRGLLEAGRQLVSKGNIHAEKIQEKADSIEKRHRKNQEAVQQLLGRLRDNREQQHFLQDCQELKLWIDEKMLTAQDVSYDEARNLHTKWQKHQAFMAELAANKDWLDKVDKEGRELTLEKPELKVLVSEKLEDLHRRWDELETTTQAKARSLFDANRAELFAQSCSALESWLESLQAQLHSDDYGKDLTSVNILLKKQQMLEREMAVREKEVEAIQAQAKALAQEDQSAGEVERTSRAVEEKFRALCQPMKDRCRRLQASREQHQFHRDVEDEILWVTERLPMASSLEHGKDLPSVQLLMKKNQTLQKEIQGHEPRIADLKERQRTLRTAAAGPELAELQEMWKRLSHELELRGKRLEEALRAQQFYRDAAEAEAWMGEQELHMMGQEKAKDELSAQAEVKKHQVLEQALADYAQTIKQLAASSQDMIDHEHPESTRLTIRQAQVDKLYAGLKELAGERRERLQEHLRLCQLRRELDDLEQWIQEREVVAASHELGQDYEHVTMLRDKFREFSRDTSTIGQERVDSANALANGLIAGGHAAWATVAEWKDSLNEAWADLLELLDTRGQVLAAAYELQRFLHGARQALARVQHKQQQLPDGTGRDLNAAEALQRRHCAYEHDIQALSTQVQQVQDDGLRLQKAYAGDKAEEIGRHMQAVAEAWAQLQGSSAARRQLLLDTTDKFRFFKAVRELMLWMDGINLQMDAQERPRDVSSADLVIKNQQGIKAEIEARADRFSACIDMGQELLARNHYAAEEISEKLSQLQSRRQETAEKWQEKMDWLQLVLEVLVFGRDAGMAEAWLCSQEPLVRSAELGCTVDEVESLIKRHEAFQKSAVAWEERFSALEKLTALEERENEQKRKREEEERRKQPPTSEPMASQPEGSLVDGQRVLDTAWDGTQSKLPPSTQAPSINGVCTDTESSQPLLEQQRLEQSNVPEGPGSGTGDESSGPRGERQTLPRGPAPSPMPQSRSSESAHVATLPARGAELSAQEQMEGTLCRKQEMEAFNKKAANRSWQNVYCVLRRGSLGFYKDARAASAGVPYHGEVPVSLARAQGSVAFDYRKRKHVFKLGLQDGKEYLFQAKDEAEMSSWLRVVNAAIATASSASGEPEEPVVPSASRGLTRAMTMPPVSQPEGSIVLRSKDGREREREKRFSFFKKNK

T5 sequence (P08515 whole entry): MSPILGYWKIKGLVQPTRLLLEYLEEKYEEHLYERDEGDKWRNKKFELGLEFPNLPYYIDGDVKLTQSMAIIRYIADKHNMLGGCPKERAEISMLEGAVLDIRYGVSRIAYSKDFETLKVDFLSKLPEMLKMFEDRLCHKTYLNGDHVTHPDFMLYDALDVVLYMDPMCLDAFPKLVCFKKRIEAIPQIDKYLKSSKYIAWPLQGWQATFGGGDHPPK
T2 sequence (P31596 whole entry): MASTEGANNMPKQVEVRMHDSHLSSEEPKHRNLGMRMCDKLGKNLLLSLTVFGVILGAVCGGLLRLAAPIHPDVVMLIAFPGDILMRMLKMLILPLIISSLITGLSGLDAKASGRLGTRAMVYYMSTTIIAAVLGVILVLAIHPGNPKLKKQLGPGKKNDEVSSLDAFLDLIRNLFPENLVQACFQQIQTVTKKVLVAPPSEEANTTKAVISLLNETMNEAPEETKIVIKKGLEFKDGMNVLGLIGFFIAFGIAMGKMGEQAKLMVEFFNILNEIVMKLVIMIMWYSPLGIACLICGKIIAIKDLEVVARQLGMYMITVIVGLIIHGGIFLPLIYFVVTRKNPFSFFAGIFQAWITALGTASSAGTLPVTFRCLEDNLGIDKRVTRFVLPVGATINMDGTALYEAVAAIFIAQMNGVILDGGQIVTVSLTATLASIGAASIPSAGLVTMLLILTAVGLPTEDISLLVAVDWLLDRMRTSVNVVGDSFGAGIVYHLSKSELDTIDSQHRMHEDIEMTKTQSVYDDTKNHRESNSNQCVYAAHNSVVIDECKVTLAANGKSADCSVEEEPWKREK

B1: GTRAP3-18 (glutamate transporter EAAC1 associated protein), full-length (other)
chain: MDVNLAPLRAWDDFFPGSDRFARPDFRDISKWNNRVVSNLLYYQTNYLVVAAMMISVVGFLSPFNMILGGIIVVLVFTGFVWAAHNKDILRRMKKQYPTAFVMVVMLASYFLISMFGGVMVFVFGITFPLLLMFIHASLRLRNLKNKLENKMEGIGLKKTPMGIILDALEQQEDSINKFADYISKARE
notes: Used for native GTRAP3-18 of rat brain and tissue homogenates, for 'purified GTRAP3-18 protein' and for GTRAP3-18 expressed where no tag is stated; also called rat JWA protein homologue
[1]
  binding result: no binding
[2]
  binding result: no binding
[3]
  binding result: no binding
[4]
  binding result: binds

B2: amino-terminus c-myc tagged GTRAP3-18 (other)
chain: MDVNLAPLRAWDDFFPGSDRFARPDFRDISKWNNRVVSNLLYYQTNYLVVAAMMISVVGFLSPFNMILGGIIVVLVFTGFVWAAHNKDILRRMKKQYPTAFVMVVMLASYFLISMFGGVMVFVFGITFPLLLMFIHASLRLRNLKNKLENKMEGIGLKKTPMGIILDALEQQEDSINKFADYISKARE
notes: Expressed in HEK293 (also COS-7 and C6 glioma) cells; also called c-myc-GTRAP3-18; not shown: c-myc tag at the amino-terminus
[5]
  binding result: no binding
[6]
  binding result: no binding

B3: [35S]-methionine labelled GTRAP3-18 made by in vitro transcription and translation (other)
chain: MDVNLAPLRAWDDFFPGSDRFARPDFRDISKWNNRVVSNLLYYQTNYLVVAAMMISVVGFLSPFNMILGGIIVVLVFTGFVWAAHNKDILRRMKKQYPTAFVMVVMLASYFLISMFGGVMVFVFGITFPLLLMFIHASLRLRNLKNKLENKMEGIGLKKTPMGIILDALEQQEDSINKFADYISKARE
modifications: labeled with [35S]-methionine
notes: also called [35S]-labeled GTRAP3-18 protein
[7]
  binding result: no binding

B4: myc-tagged full-length GTRAP4-48 (other)
chain: MSIRLPHSIDRSASKKQSHLSSPIASWLSSLSSLGDSTPERTSPSHHRQPSDTSETTAGLVQRCVIIQKDQHGFGFTVSGDRIVLVQSVRPGGAAMKAGVKEGDRIIKVNGTMVTNSSHLEVVKLIKSGAYAALTLLGSSPPSVGVSGLQQNPSVAGVLRVNPIIPPPPPPPPLPPPQHITGPKPLQDPEVQKHATQILWNMLRQEEEELQDILPPCGETSQRTCEGRLSVDSQEADSGLDSGTERFPSISESLMNRNSVLSDPGLDSPQTSPVILARVAQHHRRQGSDAALLPLNHQGIDQSPKPLIIGPEEDYDPGYFNNESDIIFQDLEKLKSHPAYLVVFLRYILSQADPGPLLFYLCSEVYQQTNPKDSRSLGKDIWNIFLEKNAPLRVKIPEMLQAEIDLRLRNNEDPRNVLCEAQEAVMLEIQEQINDYRSKRTLGLGSLYGENDLLGLDGDPLRERQMAEKQLAALGDILSKYEEDRSAPMDFAVNTFMSHAGIRLRESRSSCTAEKTQSAPDKDKWLPFFPKTKKQSSNSKKEKDALEDKKRNPILRYIGKPKSSSQSIKPGNVRNIIQHFENSHQYDVPEPGTQRLSTGSFPEDLLESDSSRSEIRLGRSGSLKGREEMKRSRKAENVPRPRSDVDMDAAAEAARLHQSASSSASSLSTRSLENPTPPFTPKMGRRSIESPNLGFCTDVILPHLLEDDLGQLSDLEPEPEVQNWQHTVGKDVVANLTQREIDRQEVINELFVTEASHLRTLRVLDLIFYQRMRKENLMPREELARLFPNLPELIEIHNSWCEAMKKLREEGPIIRDISDPMLARFDGPAREELQQVAAQFCSYQSVALELIRTKQRKESRFQLFMQEAESHPQCRRLQLRDLIVSEMQRLTKYPLLLENIIKHTEGGTSEHEKLCRARDQCREILKFVNEAVKQTENRHRLEGYQKRLDATALERASNPLAAEFKSLDLTTRKMIHEGPLTWRISKDKTLDLQVLLLEDLVVLLQRQEERLLLKCHSKTAVGSSDSKQTFSPVLKLNAVLIRSVATDKRAFFIICTSELGPPQIYELVALTSSDKNIWMELLEEAVQNATKHPGAAPIPIHPSPPGSQEPAYQGSTSSRVEINDSEVYHTEKEPKKLPEGPGPEQRVQDKQLIAQGEPVQEEDEEELRTLPRAPPSLDGENRGIRTRDPVLLALTGPLLMEGLADAALEDVENLRHLILWSLLPGHTVKTQAAGEPEDDLTPTPSVVSITSHPWDPGSPGQAPTISDSTRLARPEGSQPEGEDVAVSSLAHLPPRTRSSGVWDSPELDRNPAAEAASTEPAASYKVVRKVSLLPGGGVGAAKVAGSNAIPDSGQSESELSEVEGGAQATGNCFYVSMPAGPLDSSTEPTGTPPSPSQCHSLPAWPTEPQPYRGVRGGQCSSLVRRDVDVIFHTIEQLTIKLHRLKDMELAHRELLKSLGGESSGGTTPVGSFHTEAARWTDYSLSPPAKEALASDSQNGQEQGSCPEEGSDIALEDSATDTAVSPGP
notes: tested from solubilized cell extract; also called myc-tagged GTRAP4-48; not shown: myc tag of the myc-tagged pRK5 vector
[8]
  binding result: no binding
